Test results: publication PMC5752674, “Redox regulation of PEP activity during seedling establishment in Arabidopsis thaliana” (Nature Communications, 2018)
One block for each molecule: values may come before it.

Assays:
[1] = target: T1, PRIN2 (PLASTID REDOX INSENSITIVE2), recombinant without transit peptide (Arabidopsis thaliana) (UniProt Q9XIK0); experiment: competition EMSA; settings: EMSA with 3 ug PRIN2 per reaction; buffer, salt, pH and temperature not given in the material
T1 sequence: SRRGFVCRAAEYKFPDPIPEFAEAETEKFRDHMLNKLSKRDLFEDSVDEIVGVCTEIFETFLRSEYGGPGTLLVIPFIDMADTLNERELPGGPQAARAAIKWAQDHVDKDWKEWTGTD

[2] = target: PRIN2 Cys115Ser (C2S) in transgenic prin2-2 + C2S lines (Arabidopsis thaliana) (UniProt Q9XIK0); experiment: SDS-PAGE with immunoblot; protein of transgenic prin2-2 lines with PRIN2 variants (Supplementary Figs. 4c and 5); conditions not shown
[3] = target: recombinant Arabidopsis PRIN2 WT (PLASTID REDOX …2), without the transit peptide (Arabidopsis thaliana) (UniProt Q9XIK0); experiment: non-reducing SDS-PAGE; purified recombinant protein (1 ug), untreated (air), with 5 mM DTT or other DTT concentrations, or with 2 mM H2O2; 15% polyacrylamide, nonreducing conditions, Coomassie Brilliant Blue; disulfide-linked dimer to monomers
[4] = target: PRIN2 in isolated chloroplasts of a 35S:PRIN2 line (Arabidopsis thaliana) (UniProt Q9XIK0); experiment: non-reducing SDS-PAGE with immunoblot; protein extracts of isolated chloroplasts (35S:PRIN2 line; WT plants kept in light or 48 h in the dark) or of Arabidopsis cell culture (dark, light, light with 10 mM H2O2, DCMU, MV, high light), nonreducing conditions, anti-PRIN2 polyclonal antibody
[5] = target: endogenous PRIN2 of Arabidopsis (Arabidopsis thaliana (endogenous in Col-0 plants and cell culture)) (UniProt Q9XIK0); experiment: as above
[6] = target: the molecule itself; experiment: SDS-PAGE with immunoblot; input protein extracts of protoplasts transformed with PRIN2-cMyc or TRXz-HA, probed with anti-cMyc or anti-HA; whether reducing or not is not stated
[7] = target: T2, PRIN2 (PLASTID REDOX …2), recombinant without transit peptide (Arabidopsis thaliana, UniProt Q9XIK0 62-179); experiment: competition EMSA; 50-fold excess over labeled ycf1; EMSA with 3 ug PRIN2 per reaction; buffer, salt, pH and temperature not given in the material; settings: protein: recombinant, tags: His (pET-His1a), label: none, blunt
T2 sequence: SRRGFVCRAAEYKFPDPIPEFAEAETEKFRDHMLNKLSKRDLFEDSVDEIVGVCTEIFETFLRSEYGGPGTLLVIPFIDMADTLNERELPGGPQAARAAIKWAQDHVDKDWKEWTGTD

[8] = target: T2, PRIN2 (PLASTID REDOX …2), recombinant …; experiment: EMSA; 3 ug protein; competed by 50-fold unlabeled ycf1; EMSA with 3 ug PRIN2 per reaction; buffer, salt, pH and temperature not given in the material; settings: tags: His (pET-His1a), label: biotin 3' end (Biotin-14-dCTP), blunt

Molecule: GAAACAGTATAACATGACTTATATAGCCATGTCAACCAATGTAAAATGGATAAGATCCTTTTAGTTTAGATTCATAAAAAATTTTTTGTAATCGATGAAATAAATTAGAAGCGAATCCACATACATAGAAATAGAATTGCTCTAGGAATATTTTTTCCAAATCATATGAATACGATTGAATACGATCCGTAGTGGGT (double strand) [psbA promoter competitor (psbA_197)]
binding [1]: binds

stoichiometry N [2]: 2
Molecule: PRIN2 Cys115Ser (C2S) in transgenic prin2-2 + C2S lines (from UniProt Q9XIK0 70-179) (natural protein)

stoichiometry N [3]: 2
Molecule: recombinant Arabidopsis PRIN2 WT (PLASTID REDOX …2), without the transit peptide (from UniProt Q9XIK0 70-179) (natural protein)

stoichiometry N [4]: 2
Molecule: PRIN2 in isolated chloroplasts of a 35S:PRIN2 line (from UniProt Q9XIK0 70-179) (natural protein)

stoichiometry N [5]: 2
Molecule: endogenous PRIN2 of Arabidopsis (from UniProt Q9XIK0 70-179) (natural protein)

B1: TRXz-HA (full-length Thioredoxin z fused to an HA tag) (natural protein, Arabidopsis thaliana, UniProt Q9M7X9 82-183, looked up)
chain: AQELQELVKGDRKVPLIVDFYATWCGPCILMAQELEMLAVEYESNAIIVKVDTDDEYEFARDMQVRGLPTLFFISPDPSKDAIRTEGLIPLQMMHDIIDNEM
notes: also called pRT104-TRXz-HA; source: Arabidopsis Ler suspension culture protoplasts, transiently transformed, in protein extract
stoichiometry N [6]: 2

B2: clpP promoter competitor (dsDNA)
DNA 1: CGAAACCCCAATTTTACGTTTCCACATCAAAGTGAAATAGAGAA
DNA 2: TTCTCTATTTCACTTTGATGTGGAAACGTAAAATTGGGGTTTCG
binding result [7]: binds

B3: PRIN2-cMyc (full-length PRIN2 fused to a cMyc tag) (natural protein, Arabidopsis thaliana, UniProt Q9XIK0 68-179, looked up)
chain: CRAAEYKFPDPIPEFAEAETEKFRDHMLNKLSKRDLFEDSVDEIVGVCTEIFETFLRSEYGGPGTLLVIPFIDMADTLNERELPGGPQAARAAIKWAQDHVDKDWKEWTGTD
notes: also called pRT104-PRIN2-cMyc; source: Arabidopsis Ler suspension culture protoplasts, transiently transformed, in protein extract
stoichiometry N [6]: 2

B4: rpoB promoter competitor (dsDNA)
DNA 1: TATGGTATGCAATCGAATTGGAATATGTAATATCATAGGTGAAAATGAAATTAC
DNA 2: GTAATTTCATTTTCACCTATGATATTACATATTCCAATTCGATTGCATACCATA
binding result [7]: binds

B5: psaA U region competitor (dsDNA)
DNA 1: TTTTTTAATTATAAAAAAGGGTCCGTTGAGCACCCTATCCAT
DNA 2: ATCCATAGGGTGCTCAACGGACCCTTTTTTATAATTAAAAAA
binding result ([7]; as printed, strands mismatch near the 3' end of strand 1 (possible misprint)): binds

B6: ycf1 promoter probe (dsDNA)
DNA 1: CCATTCATTTAATATCCCTTTGGTGTCATTGACATAAGAGAT
DNA 2: ATCTCTTATGTCAATGACACCAAAGGGATATTAAATGAATGG
binding result [8]: binds
